Patent publication US20250043302A1, “MUTATED HYDROXYPHENYLPYRUVATE DIOXYGENASE POLYPEPTIDE, AND CODING GENE AND USE THEREOF” (BEIJING DABEINONG BIOTECHNOLOGY CO., LTD., priority 2021, published 2025)

Key:
Format in all cases: in vivo
[1] = test system: Arabidopsis thaliana T1 plants; experiment: Topramezone tolerance of transgenic Arabidopsis thaliana T1 plants (spray, bleached leaf area grade, damage score); details: 7 DAT, Table 4; for Classification and statistics of the grade of pesticide damage: Grade 0 / Classification and statistics of the grade of pesticide damage: Grade 1 / Classification and statistics of the grade of pesticide damage: Grade 2 / Classification and statistics of the grade of pesticide damage: Grade 3: number of plants; for Scores: pesticide damage score 0-100
In short: (§1)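 T1 transformants selected by glufosinate; 18-day-old plants, with empty-vector and wild-type controls, sprayed with topramezone (25–200 g ai/ha), isoxaflutole (35–280 g ai/ha) or mesotrione (52.5–420 g ai/ha), water as 0×. Bleached leaf area fraction scored at 7 DAT as grades 0–3.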

[2] = test system: Arabidopsis thaliana T1 plants; experiment: Isoxaflutole tolerance of transgenic Arabidopsis thaliana T1 plants (spray, bleached leaf area grade, damage score); design: Scores (pesticide damage): scale not given here; details: spray, Arabidopsis thaliana T1 plants; for Classification and statistics of the grade of pesticide damage: Grade 0 (number of plants) / Classification and statistics of the grade of pesticide damage: Grade 1 (number of plants) / Classification and statistics of the grade of pesticide damage: Grade 2 (number of plants) / Classification and statistics of the grade of pesticide damage: Grade 3 (number of plants): 16 plants
In short: as §1

[3] = test system: Arabidopsis thaliana T1 plants; experiment: Mesotrione tolerance of transgenic Arabidopsis thaliana T1 plants (spray, bleached leaf area grade, damage score); design: Scores: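 damage score 0-100 computed as Σ(N×S)/(T×M)×100 over grades 0-3 with higher meaning more damage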; details: Arabidopsis thaliana T1 plants; for Grade 0 (classification and statistics of the grade of pesticide damage; number of plants) / Grade 1 (classification and statistics of the grade of pesticide damage; number of plants) / Grade 2 (classification and statistics of the grade of pesticide damage; number of plants) / Grade 3 (classification and statistics of the grade of pesticide damage; number of plants): 16 plants
In short: as §1

[4] = isoxaflutole 35 g ai/ha (0.5x field concentration)
[5] = isoxaflutole 70 g ai/ha (1x field concentration)

B1: NtHPPDm-F372A-F383W-02: nucleotide sequence encoding Nicotiana tabacum HPPD with F372A+F383W; vector DBN11753 (nucleic acid)
DNA: ATGGGGAAGCTGGAAACCGTCACTACCACCTCGGCGGCGGCTGCTGATGATTCATCGGAATTAACAACCAACTTCAAGTTGGTTGGTTTCAAAAATTTCATCAGAACAAACCCAAGGTCTGATTTCTTCTCCGTCAAGAGCTTCCACCACATTGAATTCTGGTGCGGTGACGCAACTAACACAGCGCGCCGCTTCTCATGGAGCCTAGGGATGCCAATTGCAGCTAAGAGTGATCTTTCAACAGGAAACAGCGTGCACGCCTCCTACCTCCTCCGGCCCGTAAGCGGTTCTTTACAGTTCCTGTTTACAGCACCATATTCACCTTCTATTTCGACTCCTAGTTCAGCTGCAATCCCATCTTTTTCCACATCTACACATAGGTCTTTCACTACAACACATGGACTGGGTGTTCGTGCCGTCGCCCTCGAGGTGGAGAATGCTTATACTGCCTTCAGTGCTTCTGTCTCCAGAGGCGCCAAGCCAATGTTTGAACCTGTGACAATTGATGAACAAGTAGCAATGGCTGAGGTTCATTTGTACGGCGATGTTGTGCTGCGATTTGTTTCTTATCTCAAGGACGCCGACAACCTGGTCTTCCTGCCGGGGTTTGAGGCCATGGATGAAACTGCTAGTTACAAAGAACTTGATTATGGAATACGGCGTTTGGATCATGCTGTGGGCAATGTTCCAGAACTCGGCCCGGTAGTTGATTACATCAAGAGGTTTACTGGATTTCATGAATTTGCAGAGTTTACCGCTGAAGATGTGGGAACTGCGGAAAGTGGGCTAAACTCCATGGTTCTTGCGAACAATGATGAGACTGTGCTCCTCCCTCTGAATGAGCCTGTTTATGGCACCAAAAGAAAATCTCAGATACAAACATATCTTGAGCATAATGAAGGAGCTGGGGTGCAGCACCTTGCTCTTGTTACTGAAGACATCTTTAAGACTTTGACAGAGATGAGGAAGAGAAGTGGAGTTGGAGGTTTTGAGTTCATGCCTTCCCCCCCGCCGACCTACTACAAGAATTTGAAGAACAGGGCTGGTGACGTCCTCTCAGACGAGCAGATTTTGGCTTGTGAGGAGCTTGGCATCTTGGTAGACCGGGACGACCAGGGGACGCTTCTCCAAATTGCCACAAAACCCGTCGGGGACCGCCCCACCATATGGATTGAGATCATCCAGAGGATAGGCTGCATGCTTAAAGATGGAAAAGGTCAAGTGTACCAGAAGGGTGGTTGTGGTGGGTTTGGCAAAGGAAATTTTTCTGAGCTGTTCAGAAGCATAGAAGAATATGAGAAGACACTGGAAGCAAAACAAGCAAATCAAGTTGCGGCCGCGTGA
modifications: NtHPPDm-F372A-F383W-02 Nucleotide Sequence
notes: vector DBN11753
- Classification and statistics of the grade of pesticide damage: Grade 0 ([1]; topramezone 25 g ai/ha (1×)): 2
- Classification and statistics of the grade of pesticide damage: Grade 1 ([1]; topramezone 25 g ai/ha (1×)): 13
- Classification and statistics of the grade of pesticide damage: Grade 2 ([1]; topramezone 25 g ai/ha (1×)): 1
- Classification and statistics of the grade of pesticide damage: Grade 3 ([1]; topramezone 25 g ai/ha (1×)): 0
- Classification and statistics of the grade of pesticide damage: Grade 0 ([1]; topramezone 100 g ai/ha (4×)): 0
- Classification and statistics of the grade of pesticide damage: Grade 1 ([1]; topramezone 100 g ai/ha (4×)): 1
- Classification and statistics of the grade of pesticide damage: Grade 2 ([1]; topramezone 100 g ai/ha (4×)): 13
- Classification and statistics of the grade of pesticide damage: Grade 3 ([1]; topramezone 100 g ai/ha (4×)): 2
- Scores ([1]; topramezone 25 g ai/ha (1×)): 31
- Scores ([1]; topramezone 100 g ai/ha (4×)): 69
- Resistance evaluation ([1]; topramezone 25 g ai/ha (1×)): moderately
- Resistance evaluation ([1]; topramezone 100 g ai/ha (4×)): non-resistant (non-resistant plants (scores 68-100))
- Resistance evaluation [2, 4]: Moderately
- Scores (pesticide damage) [2, 4]: 33
- Classification and statistics of the grade of pesticide damage: Grade 0 (number of plants) [2, 4]: 1
- Classification and statistics of the grade of pesticide damage: Grade 1 (number of plants) [2, 4]: 14
- Classification and statistics of the grade of pesticide damage: Grade 2 (number of plants) [2, 4]: 1
- Classification and statistics of the grade of pesticide damage: Grade 3 (number of plants) [2, 4]: 0
- Resistance evaluation [2, 5]: Poorly
- Scores (pesticide damage) [2, 5]: 65
- Classification and statistics of the grade of pesticide damage: Grade 0 (number of plants) [2, 5]: 0
- Classification and statistics of the grade of pesticide damage: Grade 1 (number of plants) [2, 5]: 3
- Classification and statistics of the grade of pesticide damage: Grade 2 (number of plants) [2, 5]: 11
- Classification and statistics of the grade of pesticide damage: Grade 3 (number of plants) [2, 5]: 2
- Resistance evaluation ([3]; mesotrione 52.5 g ai/ha): Poorly resistant
- Scores ([3]; mesotrione 52.5 g ai/ha): 35
- Grade 0 (classification and statistics of the grade of pesticide damage; number of plants) ([3]; mesotrione 52.5 g ai/ha): 1
- Grade 1 (classification and statistics of the grade of pesticide damage; number of plants) ([3]; mesotrione 52.5 g ai/ha): 13
- Grade 2 (classification and statistics of the grade of pesticide damage; number of plants) ([3]; mesotrione 52.5 g ai/ha): 2
- Grade 3 (classification and statistics of the grade of pesticide damage; number of plants) ([3]; mesotrione 52.5 g ai/ha): 0
- Resistance evaluation ([3]; mesotrione 105 g ai/ha): Non-resistant
- Scores ([3]; mesotrione 105 g ai/ha): 69
- Grade 0 (classification and statistics of the grade of pesticide damage; number of plants) ([3]; mesotrione 105 g ai/ha): 0
- Grade 1 (classification and statistics of the grade of pesticide damage; number of plants) ([3]; mesotrione 105 g ai/ha): 1
- Grade 2 (classification and statistics of the grade of pesticide damage; number of plants) ([3]; mesotrione 105 g ai/ha): 13
- Grade 3 (classification and statistics of the grade of pesticide damage; number of plants) ([3]; mesotrione 105 g ai/ha): 2
